From the supplement of paper PMC9170038

test system: MS2 coat protein; assay: apparent KD of MS2 coat protein, switch OFF state (with FMN for OFF switches, without FMN for ON switches); designed switch direction (-1 OFF switch, 1 ON switch): 1; higher = weaker reporter binding; conditions: FMN input: 0 or 200 uM; Eterna round: R93 (includes R88 designs)
How it was run: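 For every design, apparent KD is the median of normalised binding-curve fits from its clusters. The RNA switches were transcribed on-chip from Illumina sequencing clusters and titrated with SNAP-549-labelled MS2 coat protein (twofold steps, 0.7 or 1.5 nM to 3 µM; 0.8–1.5 h to 10–20 min per step). Titrations used 100 mM Tris-HCl pH 7.5, 80 mM KCl, 4 mM MgCl2, without or with constant ligand.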

| Sequence | apparent KD of MS2 coat protein [nM] |
| --- | --- |
| AAAAGACAUGAGGAUCACCCAUGUGAAAACGUAGGAGGAUAUGUCGUGAAAAAAGACUUGGCAGAAGGCCUGUGUC [SS1 - 43] | 90.7 |
| UAUAAACAUGAGGAUCACCCAUGUAGAAAUAUGGGAGGAUAUACAAAGACGAAAGUCAAAGUAGAAGGCCUAAUAU [Mat - Same State 1 - Mod - D155] | 55.3 |
| UGGAGACAUGAGGAUCACCCAUGUGAGAAGAGGCGAGGAUAUCGAAAGAAAGAAGAGAAACGAGAAGGCGCGAGCA [salish99-SS1-040] | 40.2 |
| UCAGAACCGACAAAGGAUAUAGCGGGUGAGACAUGAGGAUCACCCAUGUAUGCAGAACUCAUCCUCUAGAAGGUUGAGACGGAUA [Maedanon] | 93.6 |
| AAAAAACAUGAGGAUCACCCAUGUGAGAACAUGGGAGGAUAUACGAAGACGAAAGUCGAAGUAGAAGGCCUAAAAG [Garnet 79] | 91.2 |
| GGAAAACAUGAGGAUCACCCAUGUUAGUGUCAUUAAGGAUAUGGGCUUAAGAAUUUGAGACUAGAAGGUGAUGCGC [Soisla] | 49.2 |
| AAUACACAUGGUCAGGAUAUCGCAGCUAGGACAUGAGGAUCACCCAUGUCGCACGUAACCGUAACCGAGAAGGGACAGGGUGACC [JR_SS002_Sub409] | 15.2 |
| AACUACAUUAUGAAGGAUAUCCACAUCAAGACAUGAGGAUCACCCAUGUAAACUUAGAACAUACAGGAGAAGGUCAAGGGUGAAU [JR_SS002_Sub1206] | 69.2 |
| AAUAAUUAUACGAAGGAUAUCGGUAAUUAGACAUGAGGAUCACCCAUGUAAUAAGGUUAAAUAAACGAGAAGGUCGAGGGUGAAA [JR_SS002_Sub501] | 41.5 |
| AGAAAUAAAGGAGAGGAUAUCCAAAAGAAAACAUGAGGAUCACCCAUGUAAAAGAAAAUAAAAUGGGAGAAGGCUUCAAAUAAGA [Starry modified V4] | 46.4 |
| AGAAAUAAAAGAGAGGAUAUCUCAAAGAAAACAUGAGGAUCACCCAUGUAAAAGAAAAUAAAAUGGGAGAAGGCUCAUAAUAAAG [JL Skelter Mod 5 In the Red] | 133 |
| GUCCAACAUGAGGAUCACCCAUGUGCAUGACACUGAGGAUAUGGGACUAAAGGUGCUGGACCAGAAGGCAGAAGAA [Diatquorbi] | 94.9 |
| AACAAUCUAUCUGAGGAUAUCAUGUCAAAGACAUGAGGAUCACCCAUGUGCAGGAAAACUGCUCAUGAGAAGGCAGAUAGAUUGA [SS2: 1110] | 167 |
| AGAAAACAUGAGGAUCACCCAUGUAGAAAUAUGGGAGGAUAUACGAAGACGAAAGUCAAAGUAGAAGGCCUAAAGA [Mat - Same State 1 - Eli mod - D101] | 77.6 |
| GACUGACAUGAGGAUCACCCAUGUAUUCAAACAUGAGGAUAUAUAACACGUCAUCGACGGAUAGAAGGCAUAGAUG [JR_SS001_Sub1209] | 162 |
| AGCAUGCGAUAUAAGGAUAUGUUGUUUGCAACAUGAGGAUCACCCAUGUUUGAGGCUGAAAAGCAGCAGAAGGUAUAUACAAGCA [SS2-1.0] | 13 |
| AAGAAAAAAAGGCAGGAUAUCCAAAAAAAAACAUGAGGAUCACCCAUGUAAAAAUAAAAAAAAUGGGAGAAGGGCCAAAAAAGAA [Mat - Same State 2 - Mod - 154] | 22.1 |

| Sequence | apparent KD of MS2 coat protein [nM] |
| --- | --- |
| GGAGCCGGUACUGAGGAUAUUCAUAUUAAAACAUGAGGAUCACCCAUGUAGGCCAGAAGGCCUUGGGAGAAGGCAGAUCGGCUCC [Biceusra] | 266 |
| GUGGCGCAGGUACAGGAUAUGUUUCUCGUAACAUGAGGAUCACCCAUGUACCUAUGAGAUUAAAUGCAGAAGGGUGCACGCCACG [Inedor] | 154 |
| ACUUCACAUGAGGAUCACCCAUGUCAGGCCGGACUAGGAUAUUAUCAUGCAGCGUAACCAUAAGAAGGAGUAGGAA [JR_SS001_Sub314] | 57.3 |
| ACUACACAUGAGGAUCACCCAUGUCAGGUGGGACUAGGAUAUUAUAAACCAGAGUAAUUAUAAGAAGGAGUAGAAA [JR_SS001_Sub307] | 42.2 |
| AAAAAACAUGAGGAUCACCCAUGUAAAAAAAUGGGAGGAUAUACAAAGACGAAAGUCAAAGUAGAAGGCCUGAAAA [same state 4] | 105 |
| AAAAGACAUGAGGAUCACCCAUGUCAAAACGUAGGAGGAUAUGUAUGGAAAACAUGCUGUACAGAAGGCCUGUGUC [SS1 - 28] | 17 |
| AAGAAACAUGAGGAUCACCCAUGUAGAAAUAUGGGAGGAUAUACAAGGACGUAAGUCAAGGUAGAAGGCCUAAGAA [Mat - Same State 1 - Meechl mod - D135] | 97 |
| AAAAGACAUGAGGAUCACCCAUGUAAAGACGUAGGAGGAUAUGUCGUGAAAAAAGACUUGGCAGAAGGCCUGUGUC [SS1 - 40] | 26.6 |
| AAAGACACAGUGCAGGAUAUAGUAAUAGUCACAUGAGGAUCACCCAUGUUCUUUUAUAAGAACGAUUAGAAGGGCGGUGAAAAAA [SameState2 Malc#11] | 383 |
| GUGGUGCAGGUACAGGAUAUGUUGCUCGUAACAUGAGGAUCACCCAUGUACCUAUGAGAUUAAAUGCAGAAGGGUGCACACCACG [Edtiditele] | 208 |
| GAAAAACAUGAGGAUCACCCAUGUGAGAAUAUGGAAGGAUAUACAAAGACGAAAGUCAAAGUAGAAGGUCUAAAAG [Mat - Same State 1 - Eli mod - D15] | 20.5 |
| AAGAAACAUGAGGAUCACCCAUGUAAGAAUAUGGGAGGAUAUGCGAAAAGAAACAAAGAAGCAGAAGGCCUAAGAA [75%, Ex5 sub 1, 5] | 57.6 |
| CGUGAACAUGAGGAUCACCCAUGUGAAAAACAUAGAGGAUAUGUCGCGUGAGUGCAAAAGACAGAAGGCUAUCGUG [Mod 4 of Round 1 starryjess' Mod pf Nando] | 35.1 |
| UAAAAACAUGAGGAUCACCCAUGUGAAAAUAUGGGAGGAUAUACAAAGACGAGAGUCAAAGUAGAAGGCCUAAAAU [Mat - Same State 1 - Eli mod - D88] | 115 |
| GCCUAACAUGAGGAUCACCCAUGUAGUGGGUUGUUAGGAUAUGGACCGCAAAACACGGUACCAGAAGGAAUAGAAA [Tiquleraat] | 720 |
| AAAAAACAUGAGGAUCACCCAUGUGAAAAUAUGGGAGGAUAUACAAACACGAAAGUGAAAGUAGAAGGCCUAAAAA [SS! MT 16] | 167 |
